In patent US20230049529A1 (ALNYLAM PHARMACEUTICALS, published 2023):

Experiments:
[1] = target: T1, human B-cell maturation antigen (BCMA) (human, UniProt Q02223 1-184); test: flow cytometry on cells; cell line and concentration not printed on the sheet (methods paragraph 609)
T1 construct: whole, on cells; Cell surface antigen targeted on human MM cell lines in flow cytometry
T1 sequence (looked up): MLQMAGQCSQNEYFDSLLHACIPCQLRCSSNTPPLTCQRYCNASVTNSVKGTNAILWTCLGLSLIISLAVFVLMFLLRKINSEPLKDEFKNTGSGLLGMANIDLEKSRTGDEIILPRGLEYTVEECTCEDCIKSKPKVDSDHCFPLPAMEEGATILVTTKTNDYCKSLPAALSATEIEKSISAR
Description: Flow cytometry: During the process of flow cytometry, 100,000 cells were dispensed in each well of a V-bottom 96-well plate (Corning) and washed with 150 μL of flow cytometry buffer (PBS, 2% (v/v) FBS, 0.01% (w/v) NaN₃, pH 7.4). Subsequently, the cells were incubated with the antibodies (200 nM in 50 μL PBS) for 1 h on ice, followed by 3 rounds of washing (200 μL flow buffer). Finally, the cells were stained with R-Phycoerythrin AffiniPure F(ab′)₂ Fragment Goat Anti-Human IgG, F(ab′)₂ fragment specific (for Fabs and IgG1 or IgG1 ARCs), or R-Phycoerythrin AffiniPure F(ab′)₂ Fragment Donkey Anti-Human IgM, Fc5μ fragment specific (IgM or IgM ARCs) purchased from Jackson ImmunoResearch Laboratories for 30 min on ice. After 3 rounds of washing, the cells were passed through a BD FACSCanto™ II and the data were extracted and analyzed via FlowJo software.

human SLAMF7 [2] = target: T2, human SLAMF7 (human, UniProt Q9NQ25 23-335); test: flow cytometry on MM cell lines U-266, NCI-H929, RPMI-8226; negative control
T2 construct: whole, on cells; Cell surface antigen targeted on human MM cell lines in flow cytometry; also called CS-1
Description: (§1) Flow cytometry: In a V-bottom 96-well plate (Corning), 100,000 cells per well were dispensed. The cells were washed with 200 μL flow cytometry buffer (PBS, 2% (v/v) FBS, 0.01% (w/v) NaN₃, pH 7.4), incubated with DVD-IgG1 or IgG1 (50 μL of a 20 nM solution in PBS) for 30 min on ice, washed with 200 μL ice-cold flow cytometry buffer, and stained with Alexa Fluor 647 conjugated polyclonal (Fab′)₂ donkey anti-human Fc (Jackson ImmunoResearch Laboratories) for 20 min on ice. After washing twice with 200 μL ice-cold flow cytometry buffer, the cells were analyzed using a Canto II Flow Cytometer (Becton-Dickinson). Data were analyzed using FlowJo software (Tree Star).

human CD138 [3] = target: T3, human CD138 (human, UniProt P18827 23-310); test: as above
T3 construct: whole, on cells; Cell surface antigen targeted on human MM cell lines in flow cytometry
T3 sequence (looked up): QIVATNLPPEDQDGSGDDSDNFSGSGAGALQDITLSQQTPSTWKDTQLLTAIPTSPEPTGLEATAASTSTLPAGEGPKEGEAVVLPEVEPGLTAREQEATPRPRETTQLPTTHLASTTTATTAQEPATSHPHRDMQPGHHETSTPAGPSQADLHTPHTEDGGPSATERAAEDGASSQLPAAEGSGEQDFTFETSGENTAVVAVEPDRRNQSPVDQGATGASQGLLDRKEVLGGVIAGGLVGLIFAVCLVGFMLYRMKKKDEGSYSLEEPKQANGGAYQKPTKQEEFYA
Description: as §1

human CD138 [4] = target: T3, human CD138; test: flow cytometry on MM cell lines U-266, NCI-H929, RPMI-8226; DVD-IgG1 at 20 nM, Alexa Fluor 647 anti-human Fc
Description: as §1

human SLAMF7 [5] = target: T2, human SLAMF7; test: flow cytometry on MM cell lines U-266, NCI-H929, RPMI-8226; DVD-IgG1 at 20 nM, Alexa Fluor 647 anti-human Fc; curve assigned by grey tone only
Description: as §1

B1: Anti-BCMA DVD-IgG1 (2) (antibody)
light: DIQMTQSPSSLSASVGDRVTITCSASQDISNYLNWYQQKPGKAPKLLIYYTSNLHSGVPSRFSGSGSGTDFTLTISSLQPEDFATYYCQQYRKLPWTFGQGTKLEIKASTKGPELQMTQSPSSLSASVGDRVTITCRSSQSLLHTYGSPYLNWYLQKPGQSPKLLIYKVSNRFSGVPSRFSGSGSGTDFTLTISSLQPEDFAVYFCSQGTHLPYTFGGGTKVEIKRTVAAPSVFIFPPSDEQLKSGTASVVCLLNNFYPREAKVQWKVDNALQSGNSQESVTEQDSKDSTYSLSSTLTLSKADYEKHKVYACEVTHQGLSSPVTKSFNRGEC
heavy: not shown
notes: Dual variable domain IgG1: outer anti-BCMA Fv, ASTKGP spacer, inner h38C2 Fv, human IgG1 and kappa constant domains
B1: binds [1].

B2: h38C2 IgG1 (antibody, V domains shown)
VH: EVQLVESGGGLVQPGGSLRLSCAASGFTFSNYWMSWVRQSPEKGLEWVSEIRLRSDNYATHYAESVKGRFTISRDNSKNTLYLQMNSLRAEDTGIYYCKTYFYSFSYWGQGTLVTVSS
VL: ELQMTQSPSSLSASVGDRVTITCRSSQSLLHTYGSPYLNWYLQKPGQSPKLLIYKVSNRFSGVPSRFSGSGSGTDFTLTISSLQPEDFAVYFCSQGTHLPYTFGGGTKVEIKR
notes: also called humanized 38C2 IgG1
B2: no binding (tested: 20 nM (single concentration)) (human SLAMF7 [2]); no binding (tested: 20 nM (single concentration)) (human CD138 [3]).

B3: Anti-CD138 DVD-IgG1 (3) (antibody)
light: DIQMTQSTSSLSASLGDRVTISCSASQGINNYLNWYQQKPDGTVELLIYYTSTLQSGVPSRFSGSGSGTDYSLTISNLEPEDIGTYYCQQYSKLPRTFGGGTKLEIKASTKGPELQMTQSPSSLSASVGDRVTITCRSSQSLLHTYGSPYLNWYLQKPGQSPKLLIYKVSNRFSGVPSRFSGSGSGTDFTLTISSLQPEDFAVYFCSQGTHLPYTFGGGTKVEIKRTVAAPSVFIFPPSDEQLKSGTASVVCLLNNFYPREAKVQWKVDNALQSGNSQESVTEQDSKDSTYSLSSTLTLSKADYEKHKVYACEVTHQGLSSPVTKSFNRGEC
heavy: not shown
notes: Dual variable domain IgG1: outer anti-CD138 Fv, ASTKGP spacer, inner h38C2 Fv, human IgG1 and kappa constant domains
B3: binds (human CD138 [4]).

B4: Anti-SLAMF7 DVD-IgG1 (1) (antibody)
light: DIQMTQSPSSLSASVGDRVTITCKASQDVGIAVAWYQQKPGKVPKLLIYWASTRHTGVPDRFSGSGSGTDFTLTISSLQPEDVATYYCQQYSSYPYTFGQGTKVEIKASTKGPELQMTQSPSSLSASVGDRVTITCRSSQSLLHTYGSPYLNWYLQKPGQSPKLLIYKVSNRFSGVPSRFSGSGSGTDFTLTISSLQPEDFAVYFCSQGTHLPYTFGGGTKVEIKRTVAAPSVFIFPPSDEQLKSGTASVVCLLNNFYPREAKVQWKVDNALQSGNSQESVTEQDSKDSTYSLSSTLTLSKADYEKHKVYACEVTHQGLSSPVTKSFNRGEC
heavy: not shown
notes: Dual variable domain IgG1: outer anti-SLAMF7 Fv, ASTKGP spacer, inner h38C2 Fv, human IgG1 and kappa constant domains
B4: binds (human SLAMF7 [5]).
